For 6 molecules, binding result and EC50 results are on record in patent US20200325208A1 (IMMUNOWAKE, published 2020).

Like-named read-outs stand apart in the source and are kept apart here.

B1: Human VEGF121/VEGF-A protein (human VEGF 121 isoform) with 6-His tag (ligand)
chain: APMAEGGGQNHHEVVKFMDVYQRSYCHPIETLVDIFQEYPDEIEYIFKPSCVPLMRCGGCCNDEGLECVPTEESNITMQIMRIKPHQGQHIGEMSFLQHNKCECRPKKDRARQEKCDKPRR
notes: range 27-147; Bought from Sino Biological; captured on the ELISA plate through an anti-His-tag antibody; not shown: 6-His tag

For experiment [1], the target named is T1, EGFR/LC-GS6-VEGFR-IgG1.
T1 construct: Cetuximab IgG1 with Flt1d2-Flk1d3 fused to the C-terminus of the light chains through the GS6 linker; Expressed in CHO cells
The experiment in a line: ELISA. Background: In an ELISA, binding on a coated surface is turned into a signal by an enzyme label.

Experiment [2] deals with TNFα/LC-GS6-VEGFR-IgG1 (Homo sapiens (Human), UniProt P0DOX5 2-449 = IgG part). The experiment in a line: ELISA.
The target in experiment [3] is T2, tPD-L1/LC-GS6-VEGFR-nIgG1 (Homo sapiens (Human), UniProt P0DOX5 2-449 = IgG part).
T2 construct: Atezolizumab (de-glycosylated IgG1) with Flt1d2-Flk1d3 fused to the C-terminus of the light chains through the GS6 linker; Expressed in CHO cells
As to the kind of experiment: ELISA.

In experiment [4] the target is B1. The experiment in a line: ELISA, antigen captured by anti-His antibody on plate, HRP anti-IgG Fc detection.
Description: (§1) 96-well ELISA plates were coated with 100 μl His-tag antibody (capture antibody, 0.4 μg/ml) at room temperature (RT) overnight. The coated plates were washed with washing buffer (pH 7.4 PBS with 0.1% Tween 20) three times, and blocked with 3% BSA in washing buffer for 2 hours, at RT. […] After washing three times, VEGFR-antibody light chain fusion proteins of various concentrations in washing buffer containing 3% BSA were added to the coated plates, and let incubation for 2 hours at RT. Aflibercept (VEGFR-Fc fusion protein) and the corresponding parental full-length antibody were included as positive controls. […] After washing three times, HRP conjugated anti-gG Fc antibody (secondary antibody) was added (1:6000 dilution with 3% BSA in washing buffer), and incubated for 2 hours at RT. After washing four times, 100 μl HRP substrate was added to each well. After developing for 20 minutes, stop buffer was added to each well. Optical density (OD) of each well was measured immediately using a microplate reader at 450 nm. EC₅, was calculated if OD>2.0; otherwise, EC₅₀ was not calculated.
Experiment [5] concerns the target T3, Human IL-17A protein (human, UniProt Q16552 24-155).
T3 construct: Purchased
The experiment is described as above.
Description: as §1

The target in experiment [6] is B1. The experiment is described as above. This is another data set of the same source.
Description: as §1
Experiment [7] addresses T4, Human PD-1 protein (human, UniProt Q15116 25-167, limits assumed).
T4 construct: Purchased
The description is as above.
Description: as §1

T3 sequence (Q16552 24-155 limits assumed): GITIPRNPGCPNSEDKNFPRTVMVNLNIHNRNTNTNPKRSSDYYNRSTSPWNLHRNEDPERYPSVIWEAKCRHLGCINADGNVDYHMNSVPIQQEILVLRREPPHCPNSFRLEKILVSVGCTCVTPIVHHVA
T4 sequence (Q15116 25-167 limits assumed): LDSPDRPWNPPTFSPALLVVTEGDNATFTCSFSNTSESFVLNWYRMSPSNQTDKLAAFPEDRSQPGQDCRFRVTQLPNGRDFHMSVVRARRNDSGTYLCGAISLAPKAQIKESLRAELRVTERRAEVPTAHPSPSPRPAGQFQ

As to B1, the binding result in experiment [1], in experiment [2] and in experiment [3] was “binds” in each case.

B2: aPD-L1/LC-GS6-VEGFR-mIgG1 (other)
heavy: EVQLVESGGGLVQPGGSLRLSCAASGFTFSRYWMSWVRQAPGKGLEWVANIKQDGSEKYYVDSVKGRFTISRDNAKNSLYLQMNSLRAEDTAVYYCAREGGWFGELAFDYWGQGTLVTVSSASTKGPSVFPLAPSSKSTSGGTAALGCLVKDYFPEPVTVSWNSGALTSGVHTFPAVLQSSGLYSLSSVVTVPSSSLGTQTYICNVNHKPSNTKVDKRVEPKSCDKTHTCPPCPAPEFEGGPSVFLFPPKPKDTLMISRTPEVTCVVVDVSHEDPEVKFNWYVDGVEVHNAKTKPREEQYNSTYRVVSVLTVLHQDWLNGKEYKCKVSNKALPASIEKTISKAKGQPREPQVYTLPPSRDELTKNQVSLTCLVKGFYPSDIAVEWESNGQPENNYKTTPPVLDSDGSFFLYSKLTVDKSRWQQGNVFSCSVMHEALHNHYTQKSLSLSPGK
light: EIVLTQSPGTLSLSPGERATLSCRASQRVSSSYLAWYQQKPGQAPRLLIYDASSRATGIPDRFSGSGSGTDFTLTISRLEPEDFAVYYCQQYGSLPWTFGQGTKVEIKRTVAAPSVFIFPPSDEQLKSGTASVVCLLNNFYPREAKVQWKVDNALQSGNSQESVTEQDSKDSTYSLSSTLTLSKADYEKHKVYACEVTHQGLSSPVTKSFNRGECTGGGGSGGGGSGGGGSGGGGSGGGGSGGGGSTGSDTGRPFVEMYSEIPEIIHMTEGRELVIPCRVTSPNITVTLKKFPLDTLIPDGKRIIWDSRKGFIISNATYKEIGLLTCEATVNGHLYKTNYLTHRQTNTIIDVVLSPSHGIELSVGEKLVLNCTARTELNVGIDFNWEYPSSKHQHKKLVLSPVNRDLKTQSGSEMKKFLSTLTIDGVTRSDQGLYTCAASSGLMTKKNSTFVRVHEK
notes: Durvalumab (Fc-mutated IgG1) with Flt1d2-Flk1d3 fused to the C-terminus of the light chains through the GS6 linker; Expressed in CHO cells
As usually defined, the EC50 is the concentration needed to bring the measured effect to its halfway point. Higher therefore signals a need for much substance. B2 registered a concentration for a half-maximal effect (EC50) in experiment [4] of 34.5 nM.

B3: Pembrolizumab (e.g., Keytruda®) (antibody, human IgG4 S228P, kappa, V domains shown)
VH: QVQLVQSGVEVKKPGASVKVSCKASGYTFTNYYMYWVRQAPGQGLEWMGGINPSNGGTNFNEKFKNRVTLTTDSSTTTAYMELKSLQFDDTAVYYCARRDYRFDMGFDYWGQGTTVTVSS
VL: EIVLTQSPATLSLSPGERATLSCRASKGVSTSGYSYLHWYQQKPGQAPRLLIYLASYLESGVPARFSGSGSGTDFTLTISSLEPEDFAVYYCQHSRDLPLTFGGGTKVEIKR
notes: Parental full-length IgG4 antibody, used as the positive anti-PD-1 control; also called anti-PD-1 antibody
Take B3: the binding result in experiment [5] and in experiment [6] was “no binding” throughout.

B4: Ixekizumab (e.g., Taltz®) (antibody, human IgG4 S228P, kappa, V domains shown)
VH: QVQLVQSGAEVKKPGSSVKVSCKASGYSFTDYHIHWVRQAPGQGLEWMGVINPMYGTTDYNQRFKGRVTITADESTSTAYMELSSLRSEDTAVYYCARYDYFTGTGVYWGQGTLVTVSS
VL: DIVMTQTPLSLSVTPGQPASISCRSSRSLVHSRGNTYLHWYLQKPGQSPQLLIYKVSNRFIGVPDRFSGSGSGTDFTLKISRVEAEDVGVYYCSQSTHLPFTFGQGTKLEIKR
notes: Parental full-length IgG4 antibody; also called anti-IL-17A antibody
With B4, the binding result in experiment [7] and in experiment [6] was “no binding” each time. In experiment [5], this molecule yielded a 50% effective concentration (EC50) of 1.1 nM.

B5: Durvalumab (e.g., IMFINZI™) (antibody, human IgG1, kappa, V domains shown)
VH: EVQLVESGGGLVQPGGSLRLSCAASGFTFSRYWMSWVRQAPGKGLEWVANIKQDGSEKYYVDSVKGRFTISRDNAKNSLYLQMNSLRAEDTAVYYCAREGGWFGELAFDYWGQGTLVTVSS
VL: EIVLTQSPGTLSLSPGERATLSCRASQRVSSSYLAWYQQKPGQAPRLLIYDASSRATGIPDRFSGSGSGTDFTLTISRLEPEDFAVYYCQQYGSLPWTFGQGTKVEIKR
notes: Parental full-length IgG1 kappa; also called MEDI4736; anti-PD-L1 antibody
As to B5, the binding result in experiment [4] is recorded as “no binding”.

B6: Nivolumab (e.g., Opdivo®) (antibody, human IgG4 S228P, kappa, V domains shown)
VH: QVQLVESGGGVVQPGRSLRLDCKASGITFSNSGMHWVRQAPGKGLEWVAVIWYDGSKRYYADSVKGRFTISRDNSKNTLFLQMNSLRAEDTAVYYCATNDDYWGQGTLVTVSS
VL: EIVLTQSPATLSLSPGERATLSCRASQSVSSYLAWYQQKPGQAPRLLIYDASNRATGIPARFSGSGSGTDFTLTISSLEPEDFAVYYCQQSSNWPRTFGQGTKVEIKR
notes: Parental full-length IgG4 antibody; also called anti-PD-1 antibody
With B6, the binding result in experiment [5] and in experiment [6] was “no binding” each time.
